From publication PMC6751199, “A synthetic metabolic network for physicochemical homeostasis” (Nature Communications, 2019)

What was measured:
[1] = biological target: T1, ArcD2 (arginine/ornithine antiporter) (Lactococcus lactis, UniProt Q9CE19); test: […]-arginine uptake in ArcD2 proteoliposomes loaded with citrulline; type: biochemical; conditions: 50 mM KPi pH 7.0, 30 °C; counter-substrate 10 µM 14C-arginine outside; 1 or 10 mM citrulline inside; electrogenic
T1 construct: full length, cleavable C-terminal 10His tag (cleavage not described), expressed in L. lactis JP9000 (arcD1D2 deleted), purified in DDM, reconstituted in DOPE/DOPC/DOPG vesicles
T1 sequence (Q9CE19 1-497): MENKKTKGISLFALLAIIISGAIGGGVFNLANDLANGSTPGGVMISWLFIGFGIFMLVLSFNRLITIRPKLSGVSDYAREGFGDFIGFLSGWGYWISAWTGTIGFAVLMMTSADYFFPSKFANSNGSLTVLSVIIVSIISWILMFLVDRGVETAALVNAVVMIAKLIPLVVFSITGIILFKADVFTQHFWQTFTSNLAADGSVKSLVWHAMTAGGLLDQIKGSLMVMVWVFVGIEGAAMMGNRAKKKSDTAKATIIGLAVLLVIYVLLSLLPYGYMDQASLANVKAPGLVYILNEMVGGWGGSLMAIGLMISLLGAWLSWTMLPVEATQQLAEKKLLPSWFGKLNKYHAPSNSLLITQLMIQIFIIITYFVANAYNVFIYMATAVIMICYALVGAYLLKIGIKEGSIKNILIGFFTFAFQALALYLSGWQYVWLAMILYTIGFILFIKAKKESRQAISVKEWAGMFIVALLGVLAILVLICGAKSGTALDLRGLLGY

[2] = biological target: T1, ArcD2 (arginine/ornithine antiporter); test: […]-arginine uptake in ArcD2 proteoliposomes; type: biochemical; conditions: 50 mM KPi pH 7.0, 30 °C; 10 µM arginine outside, counter-substrate L-ornithine inside; labelled compound
[3] = biological target: T2, OpuA (ATP-driven glycine betaine transporter) (Lactococcus lactis, UniProt Q9RQ05); test: […]-glycine betaine uptake in OpuA/ArcD2 vesicles; type: biochemical; conditions: 100 mM KPi pH 7.0, 250 mM KCl, 30 °C; ATP regenerated inside from arginine; 18 µM glycine betaine; labelled compound
T2 construct: gene busAB; ABC transporter complex purified by Ni-Sepharose in DDM (tag not described here), expressed in L. lactis, co-reconstituted with ArcD2 in lipid vesicles
T2 sequence (Q9RQ05 1-573): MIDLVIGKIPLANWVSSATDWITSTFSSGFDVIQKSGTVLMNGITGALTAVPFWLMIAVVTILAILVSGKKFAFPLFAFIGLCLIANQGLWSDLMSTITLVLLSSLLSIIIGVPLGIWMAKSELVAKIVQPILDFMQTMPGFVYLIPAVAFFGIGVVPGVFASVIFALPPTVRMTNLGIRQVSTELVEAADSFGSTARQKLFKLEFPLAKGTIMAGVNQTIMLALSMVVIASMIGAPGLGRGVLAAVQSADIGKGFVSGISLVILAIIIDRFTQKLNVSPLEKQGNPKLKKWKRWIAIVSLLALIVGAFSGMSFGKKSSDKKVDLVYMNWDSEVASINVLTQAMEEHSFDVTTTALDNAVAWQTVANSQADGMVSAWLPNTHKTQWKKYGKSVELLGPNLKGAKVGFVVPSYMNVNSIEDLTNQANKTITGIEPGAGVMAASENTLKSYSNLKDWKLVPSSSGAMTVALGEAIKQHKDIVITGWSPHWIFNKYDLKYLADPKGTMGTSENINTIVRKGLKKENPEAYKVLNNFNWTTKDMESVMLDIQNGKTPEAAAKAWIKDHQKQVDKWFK
T2 sequence (Q9RQ06 1-407 partner): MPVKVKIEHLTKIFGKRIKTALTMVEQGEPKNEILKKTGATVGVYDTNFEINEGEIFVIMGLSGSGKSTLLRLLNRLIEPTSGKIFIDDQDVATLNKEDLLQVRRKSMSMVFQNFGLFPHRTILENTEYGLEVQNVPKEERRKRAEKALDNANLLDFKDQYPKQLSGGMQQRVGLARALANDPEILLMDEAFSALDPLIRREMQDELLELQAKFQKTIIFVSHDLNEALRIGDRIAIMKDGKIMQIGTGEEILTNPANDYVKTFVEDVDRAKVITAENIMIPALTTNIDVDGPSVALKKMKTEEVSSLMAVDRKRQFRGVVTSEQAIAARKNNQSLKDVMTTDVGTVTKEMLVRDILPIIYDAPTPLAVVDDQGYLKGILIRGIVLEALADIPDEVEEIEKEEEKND

purified protein [4] = substrate: N=C(N)NCCC[C@H](N)C(=O)O; test: purified protein; type: biochemical, Lactococcus lactis; conditions: 50 mM KPi pH 7.0, 30 °C, 0-480 µM L-arginine
[5] = substrate: NC(=O)OP(=O)(O)O; test: ATP/ADP ratio by PercevalHR fluorescence, pH-corrected with pyranine; type: biochemical, Lactococcus lactis; conditions: 50 mM KPi pH 7.0, 5 mM MgSO4, 30 °C, excess ADP
[6] = substrate: Nc1ncnc2c1ncn2[C@@H]1O[C@H](COP(=O)(O)OP(=O)(O)O)[C@@H](O)[C@H]1O; test: as above; type: biochemical, Lactococcus lactis; conditions: 50 mM KPi pH 7.0, 5 mM MgSO4, 30 °C, excess carbamoyl-phosphate
purified protein [7] = substrate: NCCC[C@H](N)C(=O)O; test: purified protein; conditions: 50 mM KPi pH 7.0, 30 °C, excess carbamoyl-phosphate, back reaction (citrulline formation)
purified protein [8] = substrate: NC(=O)OP(=O)(O)O; test: purified protein; type: biochemical, Lactococcus lactis; conditions: 50 mM KPi pH 7.0, 30 °C, excess L-ornithine, back reaction (citrulline formation)

## NC(=O)NCCC[C@H](N)C(=O)O [L-citrulline]
[1]
  14C-arginine uptake in ArcD2 proteoliposomes loaded with citrulline: ArcD2 exchanges arginine for citrulline, albeit at a much lower rate

## N=C(N)NCCC[C@H](N)C(=O)O [L-arginine]
[2]
  14C-arginine uptake in ArcD2 proteoliposomes: demonstrated exchange of arginine for ornithine

## C[N+](C)(C)CC(=O)[O-] [glycine betaine]
[3]
  14C-glycine betaine uptake in OpuA/ArcD2 vesicles: OpuA is constitutively active and imports glycine betaine at the expense of ATP

B1: ArcA (arginine deiminase) (Lactococcus lactis subsp. lactis Il1403) (protein)
chain: MNNGINVNSEIGKLKSVLLHRPGAEVENITPDTMKQLLFDDIPYLKIAQKEHDFFAQTLRDNGAETVYIENLATEVFEKSSETKEEFLSHLLHEAGYRPGRTYDGLTEYLTSMSTKDMVEKIYAGVRKNELDIKRTALSDMAGSDAENYFYLNPLPNAYFTRDPQASMGVGMTINKMTFPARQPESLITEYVMANHPRFKDTPIWRDRNHTTRIEGGDELILNKTTVAIGVSERTSSKTIQNLAKELFANPLSTFDTVLAVEIPHNHAMMHLDTVFTMINHDQFTVFPGIMDGAGNINVFILRPGKDDEVEIEHLTDLKAALKKVLNLSELDLIECGAGDPIAAPREQWNDGSNTLAIAPGEIVTYDRNYVTVELLKEHGIKVHEILSSELGRGRGGARCMSQPLWREDL
notes: full length, cleavable N-terminal 6His tag (cleavage not described), expressed from pNZarcA in L. lactis NZ9000, Ni-Sepharose and Superdex 200
Purified protein [4]
  Km: 26.5 µM
  kcat: 12 s⁻¹

B2: ArcC1 (carbamate kinase) (Lactococcus lactis subsp. lactis Il1403) (protein)
chain: MVKRIVVALGGNAILSKDPSAKAQKEALEVTAEQLMPLIKDNDRQMVVTHGNGPQVGNLLLQQLGSDSEKNPAMPLDTVGAMTQGEIGFWTVQAFTRAMANNGLEHYPVISAVTQTLVDENDPAFKNASKPIGPFYTEEQLPEIKKQFPDWELMEDAGRGYRRVVPSPKPLEIIEAKAFGPILESGSLLIASGGGGIPVIKDGKGYQGVEAVIDKDFSAAKLAEMVGADELLILTSGGDVYLNYGKENQVHLETVKVSEMRKYVDEERFAKGSMGPKVEAAVSFVERTGKTATITSLDNVENFVKSGSGTRIVP
notes: full length, cleavable N-terminal 10His tag (cleavage not described), expressed from pNZarcC1 in L. lactis NZ9000, Ni-Sepharose and Superdex 200
[5]
  Km: 700 µM
  kcat: 420 s⁻¹
[6]
  Km: 1000 µM
  kcat: 310 s⁻¹

B3: ArcB (ornithine transcarbamoylase) (Lactococcus lactis subsp. lactis Il1403) (protein)
chain: MTSPLITKAEVNSVFQGRSLLAEKDFTPAEINYLVDFGLHLKALKQQNIPHHYLEGKNIALLFAKTSTRTRAAFTTAAIDLGAHPEYLGANDIQLGIKESTEDTARVLGSMFDAIERRGFSQKEVEDLAKYSGVPVWNGLTDDWHPTQMIADFMTVKENFGHLKGLTLVYVGDGRNNMANSLIVTGSMLGVNVHIVAPDSLHPTKEVMDIANKFAEKSGAKPLATSNIEEGVKGANIIYSDVWVSMGESNWEERVKLLTPYRITMDMLKMTGNADNGQLIFMHCLPAFHDTETEYGKEIKEKYGLTEMEVTDEVFRSKYARQFEEAENRMHSIKAIMAATLGNLFIPAVPEDFK
notes: full length, cleavable N-terminal 6His tag (cleavage not described), expressed from pNZarcB in L. lactis NZ9000, Ni-Sepharose and Superdex 200
Purified protein [7]
  Km: 700 µM
  kcat: 2300 s⁻¹
Purified protein [8]
  Km: 1900 µM
  kcat: 2900 s⁻¹
